The values that follow come from patent publication US20120316071A1 (published 2012).

The target of test [1] is T1, rHuman EGF R/Fc Chimera, CF (R&D Systems Cat#344-ER) (human, UniProt P00533 25-645).
T1 construct: Bought recombinant Fc chimera; also called epidermal growth factor receptor; Fc part of the bought chimera not given
Nature of the test: ECL Multispot (MSD) assay, antigen spotted on plate, 10 nM Fab; blank spot 378.

Test [2] has as its target T2, rHuman HGF R/c-MET/Fc Chimera, CF (R&D Systems Cat#358-MT/CF) (human, UniProt P08581 25-932).
T2 construct: Bought recombinant Fc chimera; also called HGF R/Fc; hepatocyte growth factor receptor; Fc part of the bought chimera not given
Described as above.

The target in test [3] is T3, rHuman Notch-1/Fc Chimera, CF (R&D Systems Cat#3647-TK) (human, UniProt P46531 19-526).
T3 construct: Bought recombinant Fc chimera; Fc part of the bought chimera not given
The description is as above.

Test [4] deals with T4, rHuman CD44/Fc Chimera, CF (R&D Systems Cat#3660-CD) (human, UniProt P16070 21-220).
T4 construct: Bought recombinant Fc chimera; Fc part of the bought chimera not given
The test is described as above.

Test [5] addresses T5, rHuman IGF-1 sR, CF (R&D Systems Cat#391-GR) (human, UniProt P08069 31-932).
T5 construct: Bought soluble receptor; also called insulin-like growth factor-1 soluble receptor
The test is described as above.

In test [6] the target is T6, rHuman P-Cadherin/Fc Chimera, CF (R&D Systems Cat#861-PC) (human, UniProt P22223 108-654).
T6 construct: Bought recombinant Fc chimera; Fc part of the bought chimera not given
Described as above.

Test [7] concerns the target T7, rHuman Erythropoietin R/Fc Chimera, CF (R&D Systems Cat#963-ER) (human, UniProt P19235 25-250).
T7 construct: Bought recombinant Fc chimera; also called EPO R; EPO R/Fc; Fc part of the bought chimera not given
T7 sequence (looked up): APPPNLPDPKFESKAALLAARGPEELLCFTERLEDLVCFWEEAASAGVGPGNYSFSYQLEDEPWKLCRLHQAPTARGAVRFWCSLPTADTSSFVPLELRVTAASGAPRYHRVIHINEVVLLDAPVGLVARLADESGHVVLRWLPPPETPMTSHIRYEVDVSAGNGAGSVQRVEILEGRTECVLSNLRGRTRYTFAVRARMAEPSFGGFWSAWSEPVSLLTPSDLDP
The test is described as above.

Test [8] addresses T8, Recombinant Human DLL4 (R&D Systems Cat#1506-D4/CF) (human, UniProt Q9NR61 27-524).
T8 construct: Bought recombinant protein; also called delta-like protein 4; rHuman DLL4
The description is as above.

Test [9] concerns the target T9, rHuman ErbB2/Fc Chimera, CF (R&D Systems Cat#1129-ER) (human, UniProt P04626 23-652).
T9 construct: Bought recombinant Fc chimera; also called human epidermal growth factor 2 receptor; Fc part of the bought chimera not given
Described as above.

The target of test [10] is T1, rHuman EGF R/Fc Chimera, CF (R&D …). The test is described as follows: ECL Multispot (MSD) assay, antigen spotted on plate, 10 nM Fab; blank spot 296.
Test [11] deals with T2, rHuman HGF R/c-MET/Fc Chimera, CF (R&D …). The description is as above.
The target in test [12] is T3, rHuman Notch-1/Fc Chimera, CF (R&D …). Described as above.
Test [13] addresses T4, rHuman CD44/Fc Chimera, CF (R&D Systems …). The test is described as above.
For test [14], the target named is T5, rHuman IGF-1 sR, CF (R&D Systems …). Described as above.
For test [15], the target named is T6, rHuman P-Cadherin/Fc Chimera, CF (R&D …). The test is described as above.
Test [16] deals with T7, rHuman Erythropoietin R/Fc Chimera, CF …. The description is as above.
Test [17] deals with T8, Recombinant Human DLL4 (R&D Systems …). Described as above.
In test [18] the target is T9, rHuman ErbB2/Fc Chimera, CF (R&D …). The description is as above.
Test [19] addresses T1, rHuman EGF R/Fc Chimera, CF (R&D …). Nature of the test: ECL Multispot (MSD) assay, antigen spotted on plate, 10 nM Fab; blank spot 271.
Test [20] addresses T2, rHuman HGF R/c-MET/Fc Chimera, CF (R&D …). The description is as above.
Test [21] has as its target T3, rHuman Notch-1/Fc Chimera, CF (R&D …). The description is as above.
Test [22] addresses T4, rHuman CD44/Fc Chimera, CF (R&D Systems …). The test is described as above.
The target of test [23] is T5, rHuman IGF-1 sR, CF (R&D Systems …). The test is described as above.
Test [24] addresses T6, rHuman P-Cadherin/Fc Chimera, CF (R&D …). Described as above.
Test [25] concerns the target T7, rHuman Erythropoietin R/Fc Chimera, CF …. Described as above.
The target in test [26] is T8, Recombinant Human DLL4 (R&D Systems …). The test is described as above.
Test [27] addresses T9, rHuman ErbB2/Fc Chimera, CF (R&D …). The description is as above.

T2 sequence (P08581 25-932, change not shown): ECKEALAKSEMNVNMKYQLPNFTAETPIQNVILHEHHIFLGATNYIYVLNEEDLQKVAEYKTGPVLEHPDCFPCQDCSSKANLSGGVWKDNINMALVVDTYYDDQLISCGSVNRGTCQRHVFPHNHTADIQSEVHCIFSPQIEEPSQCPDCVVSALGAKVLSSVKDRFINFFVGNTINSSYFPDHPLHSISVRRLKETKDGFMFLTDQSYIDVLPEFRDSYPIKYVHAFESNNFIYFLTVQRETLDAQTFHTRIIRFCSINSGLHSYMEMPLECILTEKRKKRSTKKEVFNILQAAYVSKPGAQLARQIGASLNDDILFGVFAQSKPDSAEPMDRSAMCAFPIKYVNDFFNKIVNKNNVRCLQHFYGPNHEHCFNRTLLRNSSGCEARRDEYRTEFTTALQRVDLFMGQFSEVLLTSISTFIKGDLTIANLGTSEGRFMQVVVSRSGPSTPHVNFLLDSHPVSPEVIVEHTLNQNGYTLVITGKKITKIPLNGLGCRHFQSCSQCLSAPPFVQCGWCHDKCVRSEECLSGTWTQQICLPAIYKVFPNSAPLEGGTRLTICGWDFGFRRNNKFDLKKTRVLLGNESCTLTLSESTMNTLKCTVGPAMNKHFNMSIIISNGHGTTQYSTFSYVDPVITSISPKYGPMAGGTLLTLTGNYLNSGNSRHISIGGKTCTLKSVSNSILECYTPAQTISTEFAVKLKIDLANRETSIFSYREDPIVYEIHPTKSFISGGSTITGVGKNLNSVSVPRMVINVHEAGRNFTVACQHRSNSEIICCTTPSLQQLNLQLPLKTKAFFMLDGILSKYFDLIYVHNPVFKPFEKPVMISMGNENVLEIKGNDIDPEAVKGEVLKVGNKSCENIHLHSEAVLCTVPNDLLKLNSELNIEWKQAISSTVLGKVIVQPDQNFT

B1: Fab VH1-46_IGHD6-6*01_IGHJ1*01 S102A/S103P/S104F/H111F S84G & L6_IGKJ1*01 (Fab, V domains shown)
VH: QVQLVQSGAEVKKPGASVKVSCKASGYTFTSYYMHWVRQAPGQGLEWMGIINPSGGSTSYAQKFQGRVTMTRDTSTSTVYMELGSLRSEDTAVYYCAREEYAPFSAEYFQFWGQGTLVTVSS
VL: not shown
notes: Fab expressed in E. coli: VH joined to CH1 from Plasmid A (with His6 and Flag tags), VL joined to kappa CL from Plasmid C; also called APFF S84G
Consider B1, for which the ECL signal in [1] worked out at 435; in test [2], 419; in test [3] it was 473; in test [4], 457; in [5] it was 395; in test [6], 434. The ECL signal in [7] stood at 429; in test [8], 131000; in test [9], 299.

B2: Fab VH1-46_IGHD6-6*01_IGHJ1*01 S102A/S103P/S104F/H111F S84Q & L6_IGKJ1*01 (Fab, V domains shown)
VH: QVQLVQSGAEVKKPGASVKVSCKASGYTFTSYYMHWVRQAPGQGLEWMGIINPSGGSTSYAQKFQGRVTMTRDTSTSTVYMELQSLRSEDTAVYYCAREEYAPFSAEYFQFWGQGTLVTVSS
VL: not shown
notes: Fab expressed in E. coli: VH joined to CH1 from Plasmid A (with His6 and Flag tags), VL joined to kappa CL from Plasmid C; also called APFF S84Q
B2: the ECL signal in test [10] turned out to be 347; in [11], 255; in test [12], 416; in test [13], 372; in test [14], 373; in test [15], 357. Moreover, the results for the ECL signal in test [16], in test [17] and in test [18] were 288, 122000 and 311, respectively.

B3: Fab VH1-46_IGHD6-6*01_IGHJ1*01 S102A/S103P/S104F/H111F S84N & L6_IGKJ1*01 (Fab, V domains shown)
VH: QVQLVQSGAEVKKPGASVKVSCKASGYTFTSYYMHWVRQAPGQGLEWMGIINPSGGSTSYAQKFQGRVTMTRDTSTSTVYMELNSLRSEDTAVYYCAREEYAPFSAEYFQFWGQGTLVTVSS
VL: not shown
notes: Fab expressed in E. coli: VH joined to CH1 from Plasmid A (with His6 and Flag tags), VL joined to kappa CL from Plasmid C; also called APFF S84N
On to B3, for which the ECL signal in test [19] was 337; in test [20] it was 375; in test [21], 309; in test [22], 251; in [23], 324; in [24] it was 167. For the same molecule, the ECL signal came to 415 in test [25], 135000 in [26] and 307 in test [27].
